The record followed here is patent US20090258344.

In data set [1] the target is GST-tag fusion of the GTPase Cdc42.
In data set [2] the target is GST-tag fusion of the GTPase RhoA.

B1: bacterially expressed Histidine tag fusion of Dbs DH-PH domain protein (protein)
chain: LRRHVMSELLDTERAYVEELLCVLEGYAAEMDNPLMAHLLSTGLHNKKDVLFGNMEEIYHFHNRIFLRELENYTDCPELVGRCFLERMEDFQIYEKYCQNKPRSESLWRQCSDCPFFQECQRKLDHKLSLDSYLLKPVQRITKYQLLLKEMLKYSRNCEGAEDLQEALSSILGILKAVNDSMHLIAITGYDGNLGDLGKLLMQGSFSVWTDHKRGHTKVKELARFKPMQRHLFLHEKAVLFCKKREENGEGYEKAPSYSYKQSLNMAAVGITENVKGDAKKFEIWYNAREEVYIVQAPTPEIKAAWVNEIRKVLT
As for B1, the “N-methylanthraniloyl(mant)-GTP incorporation into Rho GTPase, relative fluorescence (guanine nucleotide exchange assay)” value in data set [1] was “KIAA0861 and DBS DH-PH domain proteins are active in exchanging guanine nucleotide from the GST-tag fusions of the GTPases, RhoA and Cdc42”; in data set [2], “KIAA0861 and DBS DH-PH domain proteins are active in exchanging guanine nucleotide from the GST-tag fusions of the GTPases, RhoA and Cdc42”.

B2: bacterially expressed Histidine tag fusion of KIAA0861 DH-PH domain protein (protein)
chain: PRRRIIRDLLETEEIYIKEIKSIIDGYITPMDFIWLKHLIPDVLQNNKDFLFGNIRELYEFHNRTFLKELEKCAENPELLAHCFLKRKEDLQIYFKYHKNLPRARAIWQECQDCAYFGVCQRQLDHNLPLFKYLKGPSQRLIKYQMLLKGLLDFESPEDMEIDPGELGGSAKDGPKRTKDSAFSTELQQALAVIEDLIKSCELAVDLAAVTECPDDIGKLGKLLLHGPFSVWTIHKDRYKMKDLIRFKPSQRQIYLFERGIVFCKIRMEPGDQGLSPHYSFKKTMKLMTLSIRQLGRGSHRKFEIASRNGLEKYILQAASKEIRDCWFSEISKLLM
As to B2, the “N-methylanthraniloyl(mant)-GTP incorporation into Rho GTPase, relative fluorescence (guanine nucleotide exchange assay)” value was “KIAA0861 and DBS DH-PH domain proteins are active in exchanging guanine nucleotide from the GST-tag fusions of the GTPases, RhoA and Cdc42” in data set [1]; “KIAA0861 and DBS DH-PH domain proteins are active in exchanging guanine nucleotide from the GST-tag fusions of the GTPases, RhoA and Cdc42” in data set [2].
